In publication PMC4351549 one finds stoichiometry N data, which are given here for one substance.

This experiment has as its target CeHSP17 protein (small heat shock protein from Caenorhabditis elegans) (Caenorhabditis elegans). The experiment can be described thus: cryo-EM structure; single particle 3D reconstruction, 14,217 particles, images obtained at 4°C, tetrahedral symmetry, 14.5 Å.

The term stoichiometry N denotes the number of molecules, sites or subunits per partner or assembly. Regarding “CeHSP17 protein (small heat shock protein from Caenorhabditis elegans) (natural protein)”, the stoichiometry N turned out to be 24 subunits.
